Measured values published in publication PMC9037914 (PLoS Pathogens, 2022).

T1: MyoA:ELC:MTIP complex (P. falciparum, UniProt Q8IDR3;Q8IJM4;Q8I4W8)
T1 construct: also called PfMyoA with its two light chains; MyoA:MTIP:ELC complex; copies: + +
T1 sequence 1: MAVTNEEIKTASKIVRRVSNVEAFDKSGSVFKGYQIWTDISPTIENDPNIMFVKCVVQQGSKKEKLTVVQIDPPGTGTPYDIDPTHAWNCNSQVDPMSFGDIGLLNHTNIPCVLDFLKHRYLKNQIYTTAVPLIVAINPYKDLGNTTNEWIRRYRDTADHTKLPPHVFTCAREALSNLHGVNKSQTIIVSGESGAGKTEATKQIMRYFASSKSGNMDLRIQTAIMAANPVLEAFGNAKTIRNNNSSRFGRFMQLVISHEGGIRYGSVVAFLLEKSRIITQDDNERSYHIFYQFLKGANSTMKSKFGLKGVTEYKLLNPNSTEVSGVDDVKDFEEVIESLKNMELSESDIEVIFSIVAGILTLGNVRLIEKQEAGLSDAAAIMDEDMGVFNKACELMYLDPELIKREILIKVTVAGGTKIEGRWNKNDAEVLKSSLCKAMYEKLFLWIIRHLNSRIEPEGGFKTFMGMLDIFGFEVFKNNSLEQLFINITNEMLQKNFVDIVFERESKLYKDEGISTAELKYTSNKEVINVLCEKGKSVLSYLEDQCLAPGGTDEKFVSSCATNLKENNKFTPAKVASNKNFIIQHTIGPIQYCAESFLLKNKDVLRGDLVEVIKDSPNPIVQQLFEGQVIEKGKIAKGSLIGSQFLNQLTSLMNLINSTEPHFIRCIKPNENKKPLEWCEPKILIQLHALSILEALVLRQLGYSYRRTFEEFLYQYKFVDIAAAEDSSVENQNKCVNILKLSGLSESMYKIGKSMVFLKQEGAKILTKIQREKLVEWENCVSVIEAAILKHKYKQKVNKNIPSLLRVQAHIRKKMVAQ
T1 sequence 2: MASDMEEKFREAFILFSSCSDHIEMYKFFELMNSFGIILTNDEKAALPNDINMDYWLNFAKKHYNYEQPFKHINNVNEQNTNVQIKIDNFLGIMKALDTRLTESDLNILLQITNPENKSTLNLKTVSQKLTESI
T1 sequence 3: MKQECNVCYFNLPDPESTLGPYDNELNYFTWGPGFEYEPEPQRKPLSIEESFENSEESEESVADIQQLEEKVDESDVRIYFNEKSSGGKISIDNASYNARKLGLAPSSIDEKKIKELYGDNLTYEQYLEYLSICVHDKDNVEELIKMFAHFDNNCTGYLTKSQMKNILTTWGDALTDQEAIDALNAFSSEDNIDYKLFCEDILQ

T2: Plasmodium falciparum myosin A (P. falciparum, UniProt Q8IDR3 1-818)
T2 construct: also called PfMyoA; MyoA
T2 sequence: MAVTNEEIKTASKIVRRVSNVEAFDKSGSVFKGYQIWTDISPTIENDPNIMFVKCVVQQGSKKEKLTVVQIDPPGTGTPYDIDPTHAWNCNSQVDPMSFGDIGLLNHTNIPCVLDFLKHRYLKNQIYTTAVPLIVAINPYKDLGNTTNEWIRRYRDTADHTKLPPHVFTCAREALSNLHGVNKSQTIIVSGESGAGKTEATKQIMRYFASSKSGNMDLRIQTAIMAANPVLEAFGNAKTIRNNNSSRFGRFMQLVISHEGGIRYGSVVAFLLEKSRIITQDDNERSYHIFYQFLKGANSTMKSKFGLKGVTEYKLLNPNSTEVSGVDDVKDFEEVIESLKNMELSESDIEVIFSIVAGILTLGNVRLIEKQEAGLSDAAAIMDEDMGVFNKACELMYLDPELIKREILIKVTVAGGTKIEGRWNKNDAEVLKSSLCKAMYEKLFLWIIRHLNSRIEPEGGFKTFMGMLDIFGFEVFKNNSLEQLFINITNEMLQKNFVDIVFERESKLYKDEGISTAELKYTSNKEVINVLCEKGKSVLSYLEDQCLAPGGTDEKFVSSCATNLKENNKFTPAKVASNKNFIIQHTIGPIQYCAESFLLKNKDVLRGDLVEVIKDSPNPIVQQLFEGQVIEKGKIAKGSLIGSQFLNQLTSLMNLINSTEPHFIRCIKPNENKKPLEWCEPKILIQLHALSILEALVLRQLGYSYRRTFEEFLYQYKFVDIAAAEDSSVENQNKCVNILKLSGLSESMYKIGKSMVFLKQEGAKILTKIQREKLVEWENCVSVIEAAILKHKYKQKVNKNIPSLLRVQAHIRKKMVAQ


What was measured:
Assay in all cases: cryo-EM structure
cryo-EM structure = target: the molecule itself
MyoA:ELC:MTIP complex = target: T1, MyoA:ELC:MTIP complex; conditions: both partners purified
[1] = target: T2, Plasmodium falciparum myosin A; conditions: both partners purified

Binder | binding result (cryo-EM structure) | binding result (MyoA:ELC:MTIP complex) | binding result [1]
Plasmodium falciparum actin 1 filament (natural protein, source: polymerised with jasplakinolide) not shown | binds | binds | binds
Plasmodium falciparum essential light chain (natural protein, also called PfELC; ELC) MASDMEEKFREAFILFSSCSDHIEMYKFFELMNSFGIILTNDEKAALPNDINMDYWLNFAKKHYNYEQPFKHINNVNEQNTNVQIKIDNFLGIMKALDTRLTESDLNILLQITNPENKSTLNLKTVSQKLTESI |  |  | binds
